The values that follow come from EP0480381A1.

For test [1], the target named is rat endothelin receptor (rat). Kind of test: cell-based or functional assay.
The target of test [2] is rat endothelin receptor (rat). In words: displacement of [125I-Tyr13]endothelin-1 by unlabelled peptide on COS-7 cells transfected with prETR-7. Background: In a radioligand displacement assay an active substance lowers the binding of a labelled ligand.

As to “endothelin-2 (from UniProt P20800 49-69) (peptide)”, the increase of calcium concentration in cytoplasm (fura-2), EC50 in test [1] came to 0.02 nM. In test [2], this substance came in with a binding affinity of 2 nM.
